Measurements reported in the Human Domainome abundance scans (Beltran et al. 2025).
± gives the uncertainty stated by the source.

B1: Zinc finger MYM-type protein 3, residues 405 to 444; numbered along this chain, Q14202 (parent)
chain: DATRCSICQKTGEVLHEVSNGSVVHRLCSDSCFSKFRANK

Variants of: B1
Assay: abundance fitness (aPCA) (normalised: wild type 0, dead -1); higher = more abundant; growth selection in yeast, the domain comes from the species named
Details: Homo sapiens
With DATRCSICQKTGEVLHEVSNESVVHRLCSDSCFSKFRANK [G21E] the abundance fitness was 0.008 ± 0.063.
DATRCSICQKTGEVLHEVSNQSVVHRLCSDSCFSKFRANK [G21Q] gave an abundance fitness of 0.043 ± 0.064.
DATRCSICQKTGEVLHEVSNGSVVHRLCSDSCFSKFRAEK [N39E] showed an abundance fitness of 0.128 ± 0.076.
Work on DATRCSICQKTGEVLHEVSNGSVVHRLCSDSCFSKFRAMK [N39M] yielded an abundance fitness of 0.048 ± 0.07.
Variant DATRCSICQKTGEVLHEVSNGSVVHRLCSDWCFSKFRANK [S31W] has an abundance fitness of -0.218 ± 0.066.
Variant DATRCSICQKTGEVLHEVSNGSVVHRLCSDNCFSKFRANK [S31N] has an abundance fitness of -0.089 ± 0.095.
For DASRCSICQKTGEVLHEVSNGSVVHRLCSDSCFSKFRANK [T3S], the abundance fitness was -0.06 ± 0.058.
In the case of DATRCSICQKTGEVLHEVSNGSVVHRLTSDSCFSKFRANK [C28T], the abundance fitness is reported as -0.853 ± 0.094.
Variant DATRCSICQKTGEVLHEVSNGSVVHRLWSDSCFSKFRANK [C28W] has an abundance fitness of -1.02 ± 0.08.
With DATRCSICQKTGEVLHEVSRGSVVHRLCSDSCFSKFRANK [N20R] the abundance fitness was -0.135 ± 0.057.
Work on DATRCSICQKTGEVLHEVSEGSVVHRLCSDSCFSKFRANK [N20E] yielded an abundance fitness of 0.055 ± 0.053.
Work on DATRCSICQKTGEVLHEVSNGSVVHRLCSDSCFPKFRANK [S34P] yielded an abundance fitness of -0.114 ± 0.064.
With DATRCSICQKTGEVLHEVSNGSVCHRLCSDSCFSKFRANK [V24C] the abundance fitness was -0.206 ± 0.073.
With DATRCSICQKTGEVLHEVSNGSVMHRLCSDSCFSKFRANK [V24M] the abundance fitness was 0.048 ± 0.065.
In the case of DATRCSMCQKTGEVLHEVSNGSVVHRLCSDSCFSKFRANK [I7M], the abundance fitness is reported as -0.194 ± 0.072.
Variant DATRCSDCQKTGEVLHEVSNGSVVHRLCSDSCFSKFRANK [I7D] has an abundance fitness of -0.376 ± 0.07.
With DATRCSICQKTGEVLQEVSNGSVVHRLCSDSCFSKFRANK [H16Q] the abundance fitness was -0.053 ± 0.057.
In the case of DATRCSICQKTGEVLEEVSNGSVVHRLCSDSCFSKFRANK [H16E], the abundance fitness is reported as -0.033 ± 0.061.
With DATRCSICQKTGEVLSEVSNGSVVHRLCSDSCFSKFRANK [H16S] the abundance fitness was -0.319 ± 0.057.
Variant DATRCSICQKTGEVLHEVSNGSGVHRLCSDSCFSKFRANK [V23G] has an abundance fitness of 0.018 ± 0.054.
Variant DATRCMICQKTGEVLHEVSNGSVVHRLCSDSCFSKFRANK [S6M] has an abundance fitness of -0.365 ± 0.093.
Work on RATRCSICQKTGEVLHEVSNGSVVHRLCSDSCFSKFRANK [D1R] yielded an abundance fitness of -0.165 ± 0.065.
In the case of DATRCSICQKTGEVLHEVSNGSVVHRLCSDSCFSKHRANK [F36H], the abundance fitness is reported as -0.053 ± 0.1.
Work on DATRCSICQKTGEVLHEVSNGSVVHCLCSDSCFSKFRANK [R26C] yielded an abundance fitness of -0.312 ± 0.1.
With DATRCSICQKTGEVLHEVSNGSVVHHLCSDSCFSKFRANK [R26H] the abundance fitness was -0.074 ± 0.062.
In the case of DATRCSICQKTGEVLHEVSNGSVVHRLCSDSCFSKFRANE [K40E], the abundance fitness is reported as 0.077 ± 0.09.
With DATRCSITQKTGEVLHEVSNGSVVHRLCSDSCFSKFRANK [C8T] the abundance fitness was -0.61 ± 0.072.
For DATRCSIPQKTGEVLHEVSNGSVVHRLCSDSCFSKFRANK [C8P], the abundance fitness was -0.912 ± 0.11.
Work on DATRCSIFQKTGEVLHEVSNGSVVHRLCSDSCFSKFRANK [C8F] yielded an abundance fitness of -0.754 ± 0.13.
DATRFSICQKTGEVLHEVSNGSVVHRLCSDSCFSKFRANK [C5F] showed an abundance fitness of -0.776 ± 0.14.
Work on DATRCSICQKTGEVLHEVSNGSVVHRLCSDSCTSKFRANK [F33T] yielded an abundance fitness of -0.072 ± 0.065.
Variant DATRCSICQKTGEVLHEVSNGSVVHRLCSDSCCSKFRANK [F33C] has an abundance fitness of -0.11 ± 0.15.
Work on DATRCSICQKTGEVLHEVSNGSVVHRLCYDSCFSKFRANK [S29Y] yielded an abundance fitness of -0.936 ± 0.24.
For DATRCSICQKDGEVLHEVSNGSVVHRLCSDSCFSKFRANK [T11D], the abundance fitness was -0.104 ± 0.11.
For DNTRCSICQKTGEVLHEVSNGSVVHRLCSDSCFSKFRANK [A2N], the abundance fitness was 0.461 ± 0.072.
Work on DATRCSICQKTGEVLHEVENGSVVHRLCSDSCFSKFRANK [S19E] yielded an abundance fitness of 0.066 ± 0.058.
Work on DATPCSICQKTGEVLHEVSNGSVVHRLCSDSCFSKFRANK [R4P] yielded an abundance fitness of -0.335 ± 0.064.
With DATMCSICQKTGEVLHEVSNGSVVHRLCSDSCFSKFRANK [R4M] the abundance fitness was 0.047 ± 0.058.
In the case of DATRCSICQKTGEVLHEVSNGSVVHRFCSDSCFSKFRANK [L27F], the abundance fitness is reported as -0.019 ± 0.15.
DATRCSICQKTGEVLHEVSNGSVVHRRCSDSCFSKFRANK [L27R] showed an abundance fitness of -0.393 ± 0.055.
DATRCSICQKTGEVLHEVSNGSVVHRYCSDSCFSKFRANK [L27Y] showed an abundance fitness of -0.056 ± 0.1.
Work on DATRCSICQKTGEVLHEVSNGSVVHRMCSDSCFSKFRANK [L27M] yielded an abundance fitness of 0.033 ± 0.073.
DATRCSICQKTGEVLHEVSNGDVVHRLCSDSCFSKFRANK [S22D] showed an abundance fitness of -0.432 ± 0.1.
DATRCSICQKTGEVLHEVSNGCVVHRLCSDSCFSKFRANK [S22C] gave an abundance fitness of -0.56 ± 0.077.
DATRCSICQKTSEVLHEVSNGSVVHRLCSDSCFSKFRANK [G12S] showed an abundance fitness of -0.115 ± 0.063.
DATRCSICQKTIEVLHEVSNGSVVHRLCSDSCFSKFRANK [G12I] showed an abundance fitness of -0.21 ± 0.11.
In the case of DATRCSICQKTGEVLHEVSNGSVVHRLCSDSCFSKFRNNK [A38N], the abundance fitness is reported as -0.461 ± 0.23.
In the case of DATRCSICQKTGEVLHEVSNGSVVHRLCSDSCFSKFRQNK [A38Q], the abundance fitness is reported as -0.072 ± 0.064.
DATRCSICQKTGEVLHEVSNGSVVHRLCSDSCFSKFRYNK [A38Y] gave an abundance fitness of -0.338 ± 0.36.
In the case of DATRCSICQKTGEVLHEVSNGSVVHRLCSSSCFSKFRANK [D30S], the abundance fitness is reported as -0.387 ± 0.073.
DATRCSICQKTGRVLHEVSNGSVVHRLCSDSCFSKFRANK [E13R] gave an abundance fitness of -0.19 ± 0.051.
In the case of DATRCSICQKTGWVLHEVSNGSVVHRLCSDSCFSKFRANK [E13W], the abundance fitness is reported as -0.696 ± 0.062.
In the case of DATRCSICQKTGQVLHEVSNGSVVHRLCSDSCFSKFRANK [E13Q], the abundance fitness is reported as -0.052 ± 0.072.
In the case of DATRCSICQKTGEVLHEVSNGSVVLRLCSDSCFSKFRANK [H25L], the abundance fitness is reported as -0.266 ± 0.056.
DATRCSICQKTGEVLHEVSNGSVVYRLCSDSCFSKFRANK [H25Y] gave an abundance fitness of -0.385 ± 0.097.
Work on DATRCSICQKTGEVLHEVSNGSVVSRLCSDSCFSKFRANK [H25S] yielded an abundance fitness of -0.138 ± 0.056.
In the case of DATRCSICQKTGEVLHMVSNGSVVHRLCSDSCFSKFRANK [E17M], the abundance fitness is reported as -0.395 ± 0.088.
DATRCSICQKTGEVLHRVSNGSVVHRLCSDSCFSKFRANK [E17R] gave an abundance fitness of -0.44 ± 0.053.
Variant DATRCSICQKTGEVLHEVSNGSVVHRLCSDSCFSFFRANK [K35F] has an abundance fitness of 0.052 ± 0.19.
For DATRCSICQKTGEYLHEVSNGSVVHRLCSDSCFSKFRANK [V14Y], the abundance fitness was -0.461 ± 0.14.
Work on DATRCSICQKTGESLHEVSNGSVVHRLCSDSCFSKFRANK [V14S] yielded an abundance fitness of -0.185 ± 0.057.
DATRCSICQKTGETLHEVSNGSVVHRLCSDSCFSKFRANK [V14T] gave an abundance fitness of -0.033 ± 0.063.
Work on DATRCSICQKTGEDLHEVSNGSVVHRLCSDSCFSKFRANK [V14D] yielded an abundance fitness of -0.228 ± 0.075.
